Target: T1, eIF4E (purified, from pTXB1-eIF4E) (UniProt P06730 1-217)
T1 construct: also called purified eIF4E; source: pTXB1-eIF4E; protein expression and purification as previously described (12)
Assay: pull-down; competitive: GST-RBM38 on GST beads, 250 µg purified eIF4E and 10 µM peptide in lysis buffer (50 mM Tris pH 7.5, 150 mM NaCl, 0.1% Triton X-100), rocked overnight, washed 3x, western blot
Conditions: both partners purified

T1 sequence (P06730 whole entry): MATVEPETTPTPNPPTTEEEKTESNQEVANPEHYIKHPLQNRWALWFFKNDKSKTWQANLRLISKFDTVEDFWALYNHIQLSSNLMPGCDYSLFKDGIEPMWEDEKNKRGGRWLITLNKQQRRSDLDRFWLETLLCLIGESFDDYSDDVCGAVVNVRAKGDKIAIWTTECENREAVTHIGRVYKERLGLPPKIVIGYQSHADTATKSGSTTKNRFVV

binding result: binds
B1: Pep7 (peptide)
peptide: PSAASPV
notes: also called Pep7-PSAASPV; shortened 7-amino acid peptide; source: synthetic peptide (GenScript)
